Bounds are passed on as bounds.

The target of one data set is T1, Naa10 (monomeric) (human, UniProt P41227 1-235, limits assumed).
T1 construct: also called hNaa10; Ard1
T1 sequence (looked up): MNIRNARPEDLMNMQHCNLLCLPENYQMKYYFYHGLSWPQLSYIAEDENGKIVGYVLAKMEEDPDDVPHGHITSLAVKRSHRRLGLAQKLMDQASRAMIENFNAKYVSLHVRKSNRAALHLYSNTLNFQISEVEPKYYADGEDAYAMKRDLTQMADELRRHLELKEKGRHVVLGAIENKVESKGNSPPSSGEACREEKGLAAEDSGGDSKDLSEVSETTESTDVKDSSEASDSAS
In words: Ki calculated by Cheng-Prusoff from IC50 of Nt-acetylation inhibition assay.

In data set [1] the target is T2, NatA complex (Naa15-Naa10) (human, UniProt P41227 1-235; Q9BXJ9 1-866).
T2 sequence (looked up) 1: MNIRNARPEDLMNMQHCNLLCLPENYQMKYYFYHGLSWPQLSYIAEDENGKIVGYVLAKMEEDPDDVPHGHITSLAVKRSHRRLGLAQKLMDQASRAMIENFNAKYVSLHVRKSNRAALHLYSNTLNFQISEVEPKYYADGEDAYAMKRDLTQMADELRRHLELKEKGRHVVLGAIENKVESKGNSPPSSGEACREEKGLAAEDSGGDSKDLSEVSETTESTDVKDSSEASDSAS
T2 sequence (looked up) 2: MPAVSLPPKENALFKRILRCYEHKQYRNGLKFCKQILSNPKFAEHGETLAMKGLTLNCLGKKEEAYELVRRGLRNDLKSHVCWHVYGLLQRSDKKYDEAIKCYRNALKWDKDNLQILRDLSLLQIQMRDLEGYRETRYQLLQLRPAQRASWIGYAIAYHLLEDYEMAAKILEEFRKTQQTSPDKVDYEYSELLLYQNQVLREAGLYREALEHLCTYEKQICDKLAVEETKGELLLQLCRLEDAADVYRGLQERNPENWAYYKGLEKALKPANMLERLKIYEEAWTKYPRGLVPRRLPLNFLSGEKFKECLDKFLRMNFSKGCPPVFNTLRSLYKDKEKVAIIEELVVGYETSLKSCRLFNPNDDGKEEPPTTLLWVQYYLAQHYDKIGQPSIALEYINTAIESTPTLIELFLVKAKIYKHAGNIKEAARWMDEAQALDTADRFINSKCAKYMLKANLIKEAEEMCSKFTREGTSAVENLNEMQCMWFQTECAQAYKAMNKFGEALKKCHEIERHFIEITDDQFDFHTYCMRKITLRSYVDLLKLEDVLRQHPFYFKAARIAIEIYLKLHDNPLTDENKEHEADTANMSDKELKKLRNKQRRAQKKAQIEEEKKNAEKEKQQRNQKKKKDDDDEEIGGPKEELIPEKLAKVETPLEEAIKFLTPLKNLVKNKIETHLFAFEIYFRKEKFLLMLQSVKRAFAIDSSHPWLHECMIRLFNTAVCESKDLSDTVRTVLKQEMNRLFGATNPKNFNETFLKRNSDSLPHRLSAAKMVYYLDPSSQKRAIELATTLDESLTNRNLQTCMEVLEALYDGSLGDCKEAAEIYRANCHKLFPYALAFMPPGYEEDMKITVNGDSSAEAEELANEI
The description is as above.

For the next data set, the target named is Naa30 (UniProt Q147X3). The data set is described as above.
The target of the next data set is Naa60 (Homo sapiens, UniProt Q9H7X0). The description is as above.
Another data set has as its target Naa40 (Homo sapiens, UniProt Q86UY6). Described as above.
In a further data set the target is Naa50 (human) (UniProt Q9GZZ1). Described as above.
For the next data set, the target named is NatB (Homo sapiens, UniProt P61599). Described as above.
Data set [2] deals with T2, NatA complex (Naa15-Naa10). In words: cell-based or functional assay.
Data set [3] deals with T2, NatA complex (Naa15-Naa10). In words: comparison of Ki values from Nt-acetylation inhibition assays.
The target of the next data set is T3, Naa10 (Homo sapiens, UniProt P41227).
T3 sequence (P41227 1-235): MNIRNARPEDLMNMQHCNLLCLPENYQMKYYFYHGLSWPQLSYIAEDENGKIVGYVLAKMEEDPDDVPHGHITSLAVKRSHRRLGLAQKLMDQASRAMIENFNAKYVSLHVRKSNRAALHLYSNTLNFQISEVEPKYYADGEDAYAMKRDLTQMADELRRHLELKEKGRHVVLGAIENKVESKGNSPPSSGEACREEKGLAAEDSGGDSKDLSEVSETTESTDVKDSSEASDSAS
In words: Nt-acetylation inhibitor assay (DTNB), Naa10. As to conditions: selectivity, panel of human NATs. Format: biochemical. On the procedure:
The IC50 values for these compounds were tested as described in Foyn H, et al. (2013) “Design, Synthesis, and Kinetic Characterization of Protein N-Terminal Acetyltransferase Inhibitors”. ACS Chem Biol 8:1121-1127; and Foyn H, et al. (2017) “DTNB-Based quantification of in vitro enzymatic N-terminal acetyltransferase activity”, Methods Mol. Biol. 1574:9-15. Briefly, a colorimetric acetylation assay, 5,5′-dithiobis-(2-nitrobenzoic acid) (DTNB) assay was used to measure the catalytic activity of NATs after incubation with NAT inhibitors. […] Therefore, NTB- was quantified by measuring the absorbance at 412 nm and indirectly measures peptide Nt-acetylation. […] In order to measure CoA production, 2 mM DTNB (dissolved in 100 mM sodium phosphate dibasic pH 6.8 and 10 mM EDTA) was added to the quenched reaction and the absorbance at 412 nm was measured with a spectrophotometer (Epoc). Background absorbance (determined in negative controls) was subtracted from the absorbance determined in each individual reaction. Thiophenolate production was quantified assuming ε=13.7×103 M−1 cm−1. […] A similar Nt-acetylation reaction was performed as previously described and the enzymatic activity was quenched with a final concentration of 1% TFA and analyzed by HPLC (Evjenth R, Van Damme P, Gevaert K, Arnesen T (2013) HPLC-based Quantification of in vitro N-terminal Acetylation. Methods Mol Biol 981:95-102.). […]

The next data set addresses T4, Naa80 (Homo sapiens, UniProt Q93015).
T4 construct: The PCR product containing the CDS was inserted into the TOPO TA vector; made in house; host or cells: E. coli BL21 Star (DE3)
T4 sequence (Q93015 1-308 isoform Q93015-2): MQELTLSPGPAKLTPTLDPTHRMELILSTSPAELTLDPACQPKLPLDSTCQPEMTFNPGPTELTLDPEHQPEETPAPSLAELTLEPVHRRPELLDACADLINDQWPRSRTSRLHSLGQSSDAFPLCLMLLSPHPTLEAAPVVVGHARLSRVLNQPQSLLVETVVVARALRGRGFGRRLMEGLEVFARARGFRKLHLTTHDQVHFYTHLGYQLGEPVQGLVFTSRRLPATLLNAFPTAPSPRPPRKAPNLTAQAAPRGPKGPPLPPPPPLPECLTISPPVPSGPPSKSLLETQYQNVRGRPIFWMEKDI
Description: Nt-acetylation inhibitor assay for Naa80. Format: biochemical. On the procedure:
FIG. 10: (A) IC50 values for inhibitors measured in an Nt-acetylation inhibitor assay for Naa80. (B) Ki-values for CoA-Ac-DDDI-NH2 (SEQ ID NO: 6) for different human NATs measured in an Nt-acetylation inhibitor assay. All reactions were performed at least three times and in triplicate; errors bars represent standard deviation of each measurement.
The IC50 values for these compounds were tested as described in Foyn H, et al. (2013) “Design, Synthesis, and Kinetic Characterization of Protein N-Terminal Acetyltransferase Inhibitors”. ACS Chem Biol 8:1121-1127; and Foyn H, et al. (2017) “DTNB-Based quantification of in vitro enzymatic N-terminal acetyltransferase activity”, Methods Mol. Biol. 1574:9-15. Briefly, a colorimetric acetylation assay, 5,5′-dithiobis-(2-nitrobenzoic acid) (DTNB) assay was used to measure the catalytic activity of NATs after incubation with NAT inhibitors. In the DTNB assay, thiols present in the enzymatic product, CoA, cleaves DTNB and produces 2-nitro-5-thiobenzoate (NTB-), which absorbs light with a wavelength of 412 nm. NTB- forms in a 1:1 molar ratio to the thiol groups present in the sample. Therefore, NTB- was quantified by measuring the absorbance at 412 nm and indirectly measures peptide Nt-acetylation. […] After 30 min-60 min incubation at 37° C., the enzyme activity was quenched with quenching buffer (3.2 M guanidinium-HCl, 100 mM sodium phosphate dibasic pH 6.8). Triplicates were run for all positive samples, while negative controls were duplicated. As a negative control, reactions without enzyme were incubated at 37° C. before the reaction was quenched and added enzyme. In order to measure CoA production, 2 mM DTNB (dissolved in 100 mM sodium phosphate dibasic pH 6.8 and 10 mM EDTA) was added to the quenched reaction and the absorbance at 412 nm was measured with a spectrophotometer (Epoc). Background absorbance (determined in negative controls) was subtracted from the absorbance determined in each individual reaction. Thiophenolate production was quantified assuming ε=13.7×103 M−1 cm−1. For NatA and NatB enzyme complex inhibition, immunoprecipitation was performed using Naa15 ab (custom made, Arnesen T, Anderson D, Baldersheim C, Lanotte M, Varhaug J E, Lillehaug J R. (2005) Identification and characterization of the human ARD1-NATH protein acetyltransferase complex. Biochemical J 386(Pt 3):433-43.) or Naa20 ab (Nat5, abnova) respectively and protein A/G magnetic agarose beads (Millipore). A similar Nt-acetylation reaction was performed as previously described and the enzymatic activity was quenched with a final concentration of 1% TFA and analyzed by HPLC (Evjenth R, Van Damme P, Gevaert K, Arnesen T (2013) HPLC-based Quantification of in vitro N-terminal Acetylation. Methods Mol Biol 981:95-102.).
We then pursued Naa80 bisubstrate analogue inhibitors based on the results of the substrate screening and the sequences of the cellular substrates processed β- and γ-actin. We synthesized bisubstrate conjugates of Coenzyme A coupled to the tetrapeptides MDEL-NH2 (SEQ ID NO: 8), DDDI-NH2 (SEQ ID NO: 6), EEEI-NH2 (SEQ
ID NO: 7), and MLGT-NH2 (SEQ ID NO: 52) via an acetamide (Ac) linker.
The following additional Naa80 bisubstrate analogue inhibitors were produced and tested as described above: […]

Another data set has as its target T5, MDDD24.
T5 chain: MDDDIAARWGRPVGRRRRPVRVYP

The target of the next data set is T6, MDEL24.
T6 chain: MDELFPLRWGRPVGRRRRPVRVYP

For the next data set, the target named is T7, DDDI24.
T7 chain: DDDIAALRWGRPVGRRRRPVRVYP

NatB, sequence (P61599 whole entry, the tested form may be a part): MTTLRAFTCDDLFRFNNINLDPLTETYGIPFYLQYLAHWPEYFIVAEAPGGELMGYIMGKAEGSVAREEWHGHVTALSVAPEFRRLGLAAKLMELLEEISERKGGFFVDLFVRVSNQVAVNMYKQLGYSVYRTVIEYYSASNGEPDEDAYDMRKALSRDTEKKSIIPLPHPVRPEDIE
Naa30, sequence (Q147X3 whole entry): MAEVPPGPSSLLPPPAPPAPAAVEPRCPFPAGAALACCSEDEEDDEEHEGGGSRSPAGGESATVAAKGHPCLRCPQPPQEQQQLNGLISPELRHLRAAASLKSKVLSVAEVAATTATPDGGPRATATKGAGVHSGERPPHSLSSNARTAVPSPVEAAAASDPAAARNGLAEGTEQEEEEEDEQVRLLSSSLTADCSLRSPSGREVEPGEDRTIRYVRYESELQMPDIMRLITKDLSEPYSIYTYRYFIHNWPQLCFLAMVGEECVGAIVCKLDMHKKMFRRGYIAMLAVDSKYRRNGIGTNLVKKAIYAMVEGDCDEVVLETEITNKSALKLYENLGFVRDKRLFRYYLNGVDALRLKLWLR

The Ki is the equilibrium dissociation constant of an inhibitor or competing ligand from its target. CoA-Ac-SSNleP-NH2 (peptide): the Ki with Naa10 (monomeric) is 98.9 µM; in data set [1], 0.143 µM; with Naa30 it was 132 µM; with Naa60, 3.1 µM; in the data set with Naa40, 41.9 µM; with Naa50 (human), 17.7 µM. The Ki with NatB is 41.6 µM. The IC50 (µM), Nt-acetylation inhibition in data set [2] was found to be 1.46 µM. The fold more potent towards NatA than all the other NATs tested in data set [3] was more than 100 fold.

One may read the IC50 as the concentration needed to halve the response being measured. A lower IC50 goes with greater potency in that assay. As to `CC[C@H](C)[C@H](NC(=O)[C@H](CC(=O)O)NC(=O)[C@H](CC(=O)O)NC(=O)[C@H](CC(=O)O)NC(=O)CSCCNC(=O)CCNC(=O)C(O)C(C)(C)COP(=O)(O)OP(=O)(O)OCC1OC(n2cnc3c(N)ncnc32)C(O)C1OP(=O)(O)O)C(N)=O` (stereo partly shown) [CoA-Ac-DDDI-NH2], the “reduced potency for Naa10 compared to Naa80” value at Naa10 is 88 fold. This molecule also showed an IC50 on Naa80 (Naa80) of 0.38 µM. Moreover, on Naa80 (ratio of IC50 values), the “more potent Naa80 inhibitor than CoA-Ac-EEEI-NH2” value is given as 3 fold and the “more potent Naa80 inhibitor than CoA-Ac-MDEL-NH2” value was 3.3 fold.

B1: MBP-HishNAA80 fusion protein (MBP-Naa80) (protein)
chain: MQELTLSPGPAKLTPTLDPTHRMELILSTSPAELTLDPACQPKLPLDSTCQPEMTFNPGPTELTLDPEHQPEETPAPSLAELTLEPVHRRPELLDACADLINDQWPRSRTSRLHSLGQSSDAFPLCLMLLSPHPTLEAAPVVVGHARLSRVLNQPQSLLVETVVVARALRGRGFGRRLMEGLEVFARARGFRKLHLTTHDQVHFYTHLGYQLGEPVQGLVFTSRRLPATLLNAFPTAPSPRPPRKAPNLTAQAAPRGPKGPPLPPPPPLPECLTISPPVPSGPPSKSLLETQYQNVRGRPIFWMEKDI
Regarding B1, the “substrate ranking by product formation” value is recorded as “the second best substrate, MDDD24” with MDDD24 and “its cellular substrate, processed β-actin, DDDI24 (SEQ ID NO: 41) ranked third” with DDDI24. Also, the “product formation, fold higher compared to the second best substrate MDDD24” value in the data set with MDEL24 is recorded as “a 5-fold higher product formation compared to the second best substrate, MDDD24”.

Values taken from US20200323888A1, “INHIBITORS” (VESTLANDETS INNOVASJONSSELSKAP AS, priority 2017, published 2020).
